# The PETadex activity labels (doi:10.1002/cbic.201800097)
# Legend:
# PET [1] = assay: Proxy for plastic degradation [Released monomer concentration (HPLC/LC-MS) (TPA)]
# PET [2] = assay: Proxy for plastic degradation [Released monomer concentration (HPLC/LC-MS) (MHET)]
# BHET = assay: Proxy for plastic degradation [Released monomer concentration (HPLC/LC-MS) (MHET+TPA)]
# [3] = pH 10.5, part of the chain shown
protein,measurement,setting,value
unnamed (protein) MNFPRASRLMQAAVLGGLMAVSAAATAQTNPYARGPNPTAASLEASAGPFTVRSFTVSRPSGYGAGTVYYPTNAGGTVGAIAIVPGYTARQSSIKWWGPRLASHGFVVITIDTNSTLDQPSSRSSQQMAALRQVASLNGTSSSPIYGKVDTARMGVMGWSMGGGGSLISAANNPSLKAAAPQAPWDSSTNFSSVTVPTLIFACENDSIAPVNSSALPIYDSMSRNAKQFLEINGGSHSCANSGNSNQALIGKKGVAWMKRFMDNDTRYSTFACENPNSTRVSDFRTANCS,Proxy for plastic degradation,"PET [1]; pH 8, part of the chain shown",0 nM
same,Proxy for plastic degradation,"PET [1]; pH 10, part of the chain shown",0 nM
same,Proxy for plastic degradation,PET [1]; [3],0 nM
same,Proxy for plastic degradation,"PET [2]; 25 °C, part of the chain shown",1300 nM
same,Proxy for plastic degradation,"PET [2]; 30 °C, part of the chain shown",5300 nM
same,Proxy for plastic degradation,"PET [2]; 35 °C, part of the chain shown",2200 nM
same,Proxy for plastic degradation,"PET [2]; 40 °C, part of the chain shown",0 nM
same,Proxy for plastic degradation,"PET [2]; pH 9, 25 °C, part of the chain shown",10.5 nM
same,Proxy for plastic degradation,"PET [2]; pH 9, 30 °C, part of the chain shown",12.9 nM
same,Proxy for plastic degradation,"PET [2]; pH 9, 35 °C, part of the chain shown",8 nM
same,Proxy for plastic degradation,"PET [2]; pH 9, 40 °C, part of the chain shown",5.5 nM
same,Proxy for plastic degradation,"PET [2]; pH 9, part of the chain shown",12700 nM
same,Proxy for plastic degradation,PET [2]; [3],0 nM
same,Proxy for plastic degradation,"BHET; pH 5, part of the chain shown",0.58 µM
same,Proxy for plastic degradation,"BHET; pH 5.5, part of the chain shown",0.9 µM
same,Proxy for plastic degradation,"BHET; pH 6, part of the chain shown",1.51 µM
same,Proxy for plastic degradation,"BHET; pH 6.5, part of the chain shown",1.72 µM
same,Proxy for plastic degradation,"BHET; pH 7, part of the chain shown",1.72 µM
same,Proxy for plastic degradation,"BHET; pH 7.5, 25 °C, part of the chain shown",0.95 µM
same,Proxy for plastic degradation,"BHET; pH 7.5, 30 °C, part of the chain shown",1.75 µM
same,Proxy for plastic degradation,"BHET; pH 7.5, 35 °C, part of the chain shown",1.04 µM
same,Proxy for plastic degradation,"BHET; pH 7.5, 40 °C, part of the chain shown",0.65 µM
same,Proxy for plastic degradation,"BHET; pH 7.5, 45 °C, part of the chain shown",0.3 µM
same,Proxy for plastic degradation,"BHET; pH 7.5, 50 °C, part of the chain shown",0.17 µM
same,Proxy for plastic degradation,"BHET; pH 7.5, 55 °C, part of the chain shown",0.14 µM
same,Proxy for plastic degradation,"BHET; pH 7.5, 60 °C, part of the chain shown",0.16 µM
same,Proxy for plastic degradation,"BHET; pH 8, part of the chain shown",1.65 µM
same,Proxy for plastic degradation,"BHET; pH 8.5, part of the chain shown",1.47 µM
same,Proxy for plastic degradation,"BHET; pH 9, part of the chain shown",1.1 µM
same,Proxy for plastic degradation,"BHET; pH 9.5, part of the chain shown",0.47 µM
unnamed (protein) NPYARGPNPTAASLEASAGPFTVRSFTVSRPSGYGAGTVYYPTNAGGTVGAIAIVPGYTARQSSIKWWGPRLASHGFVVITIDTNSTLDQPSSRSSQQMAALRQVASLNGTSSSPIYGKVDTARMGVMGWSMGGGGSLISAANNPSLKAAAPQAPWDSSTNFSSVTVPTLIFACENDSIAPVNSSALPIYDSMSRNAKQFLEINGGSHSCAASGNSNQALIGKKGVAWMKRFMDNDTRYSTFACENPNSTRVSDFRTANCS,Proxy for plastic degradation,PET [1]; pH 9,0 nM
same,Proxy for plastic degradation,PET [2]; pH 9,1.5 nM
unnamed (protein) NPYARGPNPTAASLEASAGPFTVRSFTVSRPSGYGAGTVYYPTNAGGTVGAIAIVPGYTARQSSIKWWGPRLASHGFVVITIDTNSTLDQPSSRSSQQMAALRQVASLNGTSSSPIYGKVDTARMGVMGWSMGGGGSLISAANNPSLKAAAPQAPWDSSTNFSSVTVPTLIFACENDSIIPVNSSALPIYDSMSRNAKQFLEINGGSHSCANSGNSNQALIGKKGVAWMKRFMDNDTRYSTFACENPNSTRVSDFRTANCS,Proxy for plastic degradation,PET [1]; pH 9,11 nM
same,Proxy for plastic degradation,PET [2]; pH 9,13 nM
unnamed (protein) NPYARGPNPTAASLEASAGPFTVRSFTVSRPSGYGAGTVYYPTNAGGTVGAIAIVPGYTARQSSIKWWGPRLASHGFVVITIDTNSTLDAPSSRSSQQMAALRQVASLNGTSSSPIYGKVDTARMGVMGWSMGGGGSLISAANNPSLKAAAPQAPWDSSTNFSSVTVPTLIFACENDSIAPVNSSALPIYDSMSRNAKQFLEINGGSHSCANSGNSNQALIGKKGVAWMKRFMDNDTRYSTFACENPNSTRVSDFRTANCS,Proxy for plastic degradation,PET [1]; pH 9,6 nM
same,Proxy for plastic degradation,BHET; pH 7.5,0.94 µM
unnamed (protein) NPYARGPNPTAASLEASAGPFTVRSFTVSRPSGYGAGTVYYPTNAGGTVGAIAIVPGYTARQSSIKWLGPRLASHGFVVITIDTNSTLDQPSSRSSQQMAALRQVASLNGTSSSPIYGKVDTARMGVMGWSMGGGGSLISAANNPSLKAAAPQAPWDSSTNFSSVTVPTLIFACENDSIAPVNSSALPIYDSMSRNAKQFLEINGGSHSCANSGNSNQALIGKKGVAWMKRFMDNDTRYSTFACENPNSTRVSDFRTANCS,Proxy for plastic degradation,PET [1]; pH 9,0 nM
same,Proxy for plastic degradation,PET [2]; pH 9,0 nM
same,Proxy for plastic degradation,BHET; pH 7.5,0.18 µM
unnamed (protein) NPYARGPNPTAASLEASAGPFTVRSFTVSRPSGYGAGTVYYPTNAGGTVGAIAIVPGYTARQSSIKWWGPRLASHGFVVITIDTNSTLDQPSSRSSQQMAALRQVASLNGTSSSPIYGKVDTARMGVMGWSMGGGGSLISAANNPSLKAAAPQAPADSSTNFSSVTVPTLIFACENDSIAPVNSSALPIYDSMSRNAKQFLEINGGSHSCANSGNSNQALIGKKGVAWMKRFMDNDTRYSTFACENPNSTRVSDFRTANCS,Proxy for plastic degradation,PET [1]; pH 9,2 nM
same,Proxy for plastic degradation,PET [2]; pH 9,1.5 nM
